Test results as given in patent US12303551B2, “Cellular immunotherapy compositions and uses thereof” (CERO THERPEUTICS HOLDINGS, INC., priority 2018, dated 2025).

B1: CER117: Chimeric engulfment receptor: Tim4 binding, Tim4 transmembrane, TLR8 and TRAF6 signaling; SEQ ID NO: 153 (protein)
chain: MSKGLLLLWLVTELWWLYLTPAASEDTIIGFLGQPVTLPCHYLSWSQSRNSMCWGKGSCPNSKCNAELLRTDGTRIISRKSTKYTLLGKVQFGEVSLTISNTNRGDSGVYCCRIEVPGWFNDVKKNVRLELRRATTTKKPTTTTRPTTTPYVTTTTPELLPTTVMTTSVLPTTTPPQTLATTAFSTAVTTCPSTTPGSFSQETTKGSAFTTESETLPASNHSQRSMMTISTDIAVLRPTGSNPGILPSTSQLTTQKTTLTTSESLQKTTKSHQINSRQTILIIACCVGFVLMVLLFLAFLHHLFYWDVWFIYNVCLAKVKGYRSLSTSQTFYDAYISYDTKDASVTDWVINELRYHLEESRDKNVLLCLEERDWDPGLAIIDNLMQSINQSKKTVFVLTKKYAKSWNFKTAFYLALQRLMDENMDVIIFILLEPVLQHSQYLRLRQRICKSSILQWPDNPKAEGLFWQTLRNVVLTENDSRYNNMYVDSIKQYMSLLNCENSCGSSQSESDCCVAMASSCSAVTKDDSVGGTASTGNLSSSFMEEIQGYDVEFDPPLESKYECPICLMALREAVQTPCGHRFCKACIIKSIRDAGHKCPVDNEILLENQLFPDNFAKREILSLMVKCPNEGCLHKMELRHLEDHQAHCEFALMDCPQCQRPFQKFHINIHILKDCPRRQVSCDNCAASMAFEDKEIHDQNCPLANVICEYCNTILIREQMPNHYDLDCPTAPIPCTFSTFGCHEKMQRNHLARHLQENTQSHMRMLA
modifications: CER117, amino acids 1-22 are signal peptide
B2: CER116: Chimeric engulfment receptor: Tim4 binding, Tim4 transmembrane, TRAF6 and TLR8 signaling; SEQ ID NO: 152 (protein)
chain: MSKGLLLLWLVTELWWLYLTPAASEDTIIGFLGQPVTLPCHYLSWSQSRNSMCWGKGSCPNSKCNAELLRTDGTRIISRKSTKYTLLGKVQFGEVSLTISNTNRGDSGVYCCRIEVPGWFNDVKKNVRLELRRATTTKKPTTTTRPTTTPYVTTTTPELLPTTVMTTSVLPTTTPPQTLATTAFSTAVTTCPSTTPGSFSQETTKGSAFTTESETLPASNHSQRSMMTISTDIAVLRPTGSNPGILPSTSQLTTQKTTLTTSESLQKTTKSHQINSRQTILIIACCVGFVLMVLLFLAFLMSLLNCENSCGSSQSESDCCVAMASSCSAVTKDDSVGGTASTGNLSSSFMEEIQGYDVEFDPPLESKYECPICLMALREAVQTPCGHRFCKACIIKSIRDAGHKCPVDNEILLENQLFPDNFAKREILSLMVKCPNEGCLHKMELRHLEDHQAHCEFALMDCPQCQRPFQKFHINIHILKDCPRRQVSCDNCAASMAFEDKEIHDQNCPLANVICEYCNTILIREQMPNHYDLDCPTAPIPCTFSTFGCHEKMQRNHLARHLQENTQSHMRMLAHHLFYWDVWFIYNVCLAKVKGYRSLSTSQTFYDAYISYDTKDASVTDWVINELRYHLEESRDKNVLLCLEERDWDPGLAIIDNLMQSINQSKKTVFVLTKKYAKSWNFKTAFYLALQRLMDENMDVIIFILLEPVLQHSQYLRLRQRICKSSILQWPDNPKAEGLFWQTLRNVVLTENDSRYNNMYVDSIKQY
modifications: CER116, amino acids 1-22 are signal peptide
B3: CER104: Chimeric engulfment receptor: Tim4 binding, Tim4 transmembrane, TLR8 and DAP12 signaling; SEQ ID NO: 139 (protein)
chain: MSKGLLLLWLVTELWWLYLTPAASEDTIIGFLGQPVTLPCHYLSWSQSRNSMCWGKGSCPNSKCNAELLRTDGTRIISRKSTKYTLLGKVQFGEVSLTISNTNRGDSGVYCCRIEVPGWFNDVKKNVRLELRRATTTKKPTTTTRPTTTPYVTTTTPELLPTTVMTTSVLPTTTPPQTLATTAFSTAVTTCPSTTPGSFSQETTKGSAFTTESETLPASNHSQRSMMTISTDIAVLRPTGSNPGILPSTSQLTTQKTTLTTSESLQKTTKSHQINSRQTILIIACCVGFVLMVLLFLAFLHHLFYWDVWFIYNVCLAKVKGYRSLSTSQTFYDAYISYDTKDASVTDWVINELRYHLEESRDKNVLLCLEERDWDPGLAIIDNLMQSINQSKKTVFVLTKKYAKSWNFKTAFYLALQRLMDENMDVIIFILLEPVLQHSQYLRLRQRICKSSILQWPDNPKAEGLFWQTLRNVVLTENDSRYNNMYVDSIKQYYFLGRLVPRGRGAAEAATRKQRITETESPYQELQGQRSDVYSDLNTQRPYYK
modifications: CER104, amino acids 1-22 are signal peptide

Test system: SCC152 cells
Assay: Elimination of GFP-expressing SCC152 target cells over time (quantification and time lapse imaging)
Type: cell-based
Conditions: for elimination of SCC152 cells, time lapse imaging: 0 to 36 hrs, compared to the control; for elimination of SCC152 cells (GFP quantification): by 36 hrs, 1:1:1 ratio (CD8:CD4:target cell), compared to control; for number of SCC152 cells in time lapse imaging: 96-well co-culture, CD8+/E7 TCR + CD4+/CER + SCC152 1:1:1, compared to control
In short: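 GFP-labelled SCC152 (HPV16+) target cells were co-cultured at 1:1:1 with CD8+ T cells carrying an HPV16 E7 TCR and with CD4+ T cells transduced with a chimeric CER or a control. Remaining target cells were counted by fluorescence imaging and automated software at 0, 12, 24, 36 h or 0, 24, 48 h.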

| Molecule | elimination of SCC152 cells, time lapse imaging | elimination of SCC152 cells (GFP quantification) | number of SCC152 cells in time lapse imaging |
| --- | --- | --- | --- |
| B1 | enhanced elimination of SCC152 cells | nearly complete elimination |  |
| B2 | enhanced elimination of SCC152 cells | nearly complete elimination | decreasing in numbers over time |
| B3 |  |  | decreasing in numbers over time |
